Measurements: US20220048996A1 (F STAR BETA, published 2022)
Where a chain is given by its changes, count along the chain named.

B1: FS20-22-49AA/4420 (antibody, human IgG1, kappa, L234A L235A)
heavy: EVKLDETGGGLVQPGRPMKLSCVASGFTFSDYWMNWVRQSPEKGLEWVAQIRNKPYNYETYYSDSVKGRFTISRDDSKSSVYLQMNNLRVEDMGIYYCTGSYYGMDYWGQGTSVTVSSASTKGPSVFPLAPSSKSTSGGTAALGCLVKDYFPEPVTVSWNSGALTSGVHTFPAVLQSSGLYSLSSVVTVPSSSLGTQTYICNVNHKPSNTKVDKKVEPKSCDKTHTCPPCPAPEAAGGPSVFLFPPKPKDTLMISRTPEVTCVVVDVSHEDPEVKFNWYVDGVEVHNAKTKPREEQYNSTYRVVSVLTVLHQDWLNGKEYKCKVSNKALPAPIEKTISKAKGQPREPQVYTLPPSRDEYWDQEVSLTCLVKGFYPSDIAVEWESNGDEQFAYKTTPPVLDSDGSFFLYSKLTVDQYRWNPADYFSCSVMHEALHNHYTQKSLSLSPG
light: DVVMTQTPLSLPVSLGDQASISCRSSQSLVHSNGNTYLRWYLQKPGQSPKVLIYKVSNRFSGVPDRFSGSGSGTDFTLKISRVEAEDLGVYFCSQSTHVPWTFGGGTKLEIKRTVAAPSVFIFPPSDEQLKSGTASVVCLLNNFYPREAKVQWKVDNALQSGNSQESVTEQDSKDSTYSLSSTLTLSKADYEKHKVYACEVTHQGLSSPVTKSFNRGEC
notes: also called OX40/FITC mock mAb^2; FS20-22-49 Fcab in mock (4420 LALA) mAb^2 format
B2: FS20-22-49AA/FS30-5-37 (bispecific antibody, human IgG1, kappa, L234A L235A, V domains shown)
VH: EVQLLESGGGLVQPGGSLRLNCAASGFTFSSYAMSWVRQAPGKGLEWVSAISGSGGSTYYADSVKGRFTISRDNSKNTLYLQMNSLRAEDTAVYYCARSYDKYWGSSIYSGLDYWGQGTLVTVSS
VL: EIVLTQSPGTLSLSPGERATLSCRASQSVSSSYLAWYQQKPGQAPRLLIYGASSRATGIPDRFSGSGSGTDFTLTISRLEPEDFAVYYCQQYYSYYPVTFGQGTKVEIKR
notes: IgG1 with LALA; also called OX40/CD137 mAb^2
B3: FS20-22-49AA/FS30-10-3 (bispecific antibody, human IgG1, kappa, L234A L235A, V domains shown)
VH: EVQLLESGGGLVQPGGSLRLSCAASGFTFSSYDMSWVRQAPGKGLEWVSDIDPTGSKTDYADSVKGRFTISRDNSKNTLYLQMNSLRAEDTAVYYCARDLNVYGFDYWGQGTLVTVSS
VL: EIVLTQSPGTLSLSPGERATLSCRASQSVSSSYLAWYQQKPGQAPRLLIYGASSRATGIPDRFSGSGSGTDFTLTISRLEPEDFAVYYCQQSYSYPVTFGQGTKVEIKR
notes: as for B2
B4: FS20-22-49AA/FS30-10-12 (bispecific antibody, human IgG1, kappa, L234A L235A, V domains shown)
VH: B3 VH with N101T
VL: B3 VL
notes: as for B2

Tests used:
[1] = biological target: T1, cynomolgus CD137 expressed on DO11.10 cells (DO11.10-cCD137) (cynomolgus monkey, UniProt Q07011 24-255 (human entry)); test: flow cytometry on DO11.10 cells expressing the target
T1 chain: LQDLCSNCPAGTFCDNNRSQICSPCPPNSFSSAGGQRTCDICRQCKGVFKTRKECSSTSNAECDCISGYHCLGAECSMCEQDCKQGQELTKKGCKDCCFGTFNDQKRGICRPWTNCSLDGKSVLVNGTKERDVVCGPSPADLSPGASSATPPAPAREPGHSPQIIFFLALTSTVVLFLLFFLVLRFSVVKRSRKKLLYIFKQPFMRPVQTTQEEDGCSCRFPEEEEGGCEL
Method: (§1) 50 μl of the antibody dilutions were added to the wells containing cells (final volume 100 μl) and incubated at 4° C. for 1 hour. […] The plates were washed and resuspended in 100 μl of PBS containing DAPI (Biotium, cat no 40043) at 1 μg/ml. The plates were analysed using a Canto II flow cytometer (BD Bioscience) and the data analysed using FlowJo. Dead cells were identified by their higher fluorescence on the UV (405 nm/450/50) channel and excluded from analysis. […] The GMFI data was fit using log (agonist) vs response (three parameters) in Graph Pad Prism Software to generate EC₅₀ values.

[2] = biological target: T2, human CD137 expressed on DO11.10 cells (DO11.10-hCD137) (human, UniProt Q07011 24-255); test: as above
T2 construct: also called CD137 on human T cells
Method: as §1

hOX40-mFc = biological target: T3, hOX40-mFc (human); test: SPR, antibody captured via anti-human Fab, dimeric antigen flowed, 1:1 fit
T3 construct: Dimeric; also called human OX40-mFc
T3 chain: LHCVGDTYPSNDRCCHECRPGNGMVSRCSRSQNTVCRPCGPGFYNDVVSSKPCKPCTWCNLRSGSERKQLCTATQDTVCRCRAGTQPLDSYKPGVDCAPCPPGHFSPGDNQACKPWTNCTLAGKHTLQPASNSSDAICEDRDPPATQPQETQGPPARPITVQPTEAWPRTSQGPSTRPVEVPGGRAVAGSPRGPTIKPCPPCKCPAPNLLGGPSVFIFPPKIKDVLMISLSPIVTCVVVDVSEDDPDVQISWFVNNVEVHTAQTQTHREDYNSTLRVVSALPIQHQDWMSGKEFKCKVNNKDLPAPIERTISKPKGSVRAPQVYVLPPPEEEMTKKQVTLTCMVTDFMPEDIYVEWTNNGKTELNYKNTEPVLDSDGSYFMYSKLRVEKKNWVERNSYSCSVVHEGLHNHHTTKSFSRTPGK
Method: (§2) For OX40 affinity determination a Biacore CM5 chip was coated with anti-human Fab using a Human Fab Capture Kit (GE Healthcare 28958325) according to manufacturer's conditions, to a surface density of approximately 8000 RU. […] The association time was 2 min and the dissociation time was 8 min. Running buffer was HBS-EP. Flow cells were regenerated by injecting glycine-HCl at pH 2.1 at a flow rate of 30 μl/min for 30 seconds.
(§3) The binding kinetics were fit with a 1:1 Langmuir model to generate binding association (kₐ) and dissociation (kd) rates. Equilibrium binding constants (KD) were calculated by dividing the dissociation rate by the association rate for each sample. Data analysis was performed with BiaEvaluation software version 3.2.

cOX40-mFc = biological target: T4, cOX40-mFc (cynomolgus); test: as above
T4 construct: Dimeric; also called cyno OX40-mFc
T4 chain: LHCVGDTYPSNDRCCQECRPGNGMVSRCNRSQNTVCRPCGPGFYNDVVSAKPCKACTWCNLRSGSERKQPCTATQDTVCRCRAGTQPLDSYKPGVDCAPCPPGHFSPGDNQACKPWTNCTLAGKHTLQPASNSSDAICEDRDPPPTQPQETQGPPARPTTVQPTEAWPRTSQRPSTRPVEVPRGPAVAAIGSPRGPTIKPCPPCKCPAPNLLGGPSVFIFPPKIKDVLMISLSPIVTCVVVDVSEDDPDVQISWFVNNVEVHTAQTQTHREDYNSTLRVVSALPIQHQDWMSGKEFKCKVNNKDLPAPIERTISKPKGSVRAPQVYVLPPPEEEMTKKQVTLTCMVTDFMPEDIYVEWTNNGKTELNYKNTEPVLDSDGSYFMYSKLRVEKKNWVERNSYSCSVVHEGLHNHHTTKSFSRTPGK
Method: as §2, §3

[3] = biological target: T5, human OX40 expressed on DO11.10 cells (DO11.10-hOX40) (human, UniProt P43489 29-277); test: flow cytometry on DO11.10 cells expressing the target
T5 construct: Also used here for OX40 on primary human T cells in the functional rows; also called human OX40 receptor; OX40 on human T cells
T5 sequence: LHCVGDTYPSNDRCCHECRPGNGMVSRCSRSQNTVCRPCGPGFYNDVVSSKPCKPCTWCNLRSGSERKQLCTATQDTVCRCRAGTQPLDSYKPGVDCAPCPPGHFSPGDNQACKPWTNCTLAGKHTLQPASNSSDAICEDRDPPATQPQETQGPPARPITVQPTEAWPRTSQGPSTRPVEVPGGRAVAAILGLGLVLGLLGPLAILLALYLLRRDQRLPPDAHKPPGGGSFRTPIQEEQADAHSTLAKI
Method: as §1

[4] = biological target: T6, cynomolgus OX40 expressed on DO11.10 cells (DO11.10-cOX40) (cynomolgus, UniProt P43489 29-277 (human entry)); test: as above
T6 chain: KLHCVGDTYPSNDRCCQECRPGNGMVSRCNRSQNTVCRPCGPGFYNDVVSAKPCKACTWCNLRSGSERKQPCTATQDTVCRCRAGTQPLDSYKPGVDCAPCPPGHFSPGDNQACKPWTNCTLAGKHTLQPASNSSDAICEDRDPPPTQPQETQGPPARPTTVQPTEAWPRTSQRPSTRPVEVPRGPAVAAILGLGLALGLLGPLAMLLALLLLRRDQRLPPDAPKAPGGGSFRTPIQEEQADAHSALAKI
Method: as §1

cCD137-mFc-Avi = biological target: T7, cCD137-mFc-Avi (cynomolgus monkey); test: SPR, antibody captured via anti-human Fc, dimeric antigen flowed, 1:1 fit
T7 construct: 139 used; also called cyno CD137-mFc-Avi; recombinant cyno CD137
T7 chain: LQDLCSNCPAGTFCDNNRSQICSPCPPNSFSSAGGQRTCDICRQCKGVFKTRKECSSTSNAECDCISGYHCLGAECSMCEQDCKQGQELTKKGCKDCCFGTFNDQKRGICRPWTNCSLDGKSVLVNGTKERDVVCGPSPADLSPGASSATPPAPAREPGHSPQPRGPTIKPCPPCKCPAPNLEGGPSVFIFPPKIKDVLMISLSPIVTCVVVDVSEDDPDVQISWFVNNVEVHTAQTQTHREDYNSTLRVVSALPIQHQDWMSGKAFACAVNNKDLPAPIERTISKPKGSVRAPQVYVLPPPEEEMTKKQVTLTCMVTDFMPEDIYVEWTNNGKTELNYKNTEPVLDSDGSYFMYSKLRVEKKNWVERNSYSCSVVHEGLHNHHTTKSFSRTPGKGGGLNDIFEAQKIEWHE
Method: (§4) For CD137 affinity determination, a Biacore CM5 chip (GE Healthcare) was coated with anti-human Fc using a Human Antibody Capture Kit (GE Healthcare) according to manufacturer's conditions, to a surface density of approximately 4000 RU. […] Human or cynomolgus CD137 (hCD137-mFc-Avi or cCD137-mFc-Avi) was flowed over at a range of concentrations in a three-fold dilution series starting at 200 nM, at a flow rate of 70 μl/min. The association time was 2 min and the dissociation time was 8 min. Running buffer was HBS-EP (GE Healthcare BR100188). Flow cells were regenerated by injecting 3M magnesium chloride at a flow rate of 30 μl/min for 30 seconds.
as §3

hCD137-mFc-Avi = biological target: T8, hCD137-mFc-Avi (human); test: as above
T8 construct: Dimer; a biotinylated version was used where the text says so; also called human CD137-mFc-Avi; hCD137-mFc-Avi-Bio
Method: as §4, §3

[5] = biological target: T2, human CD137 expressed on DO11.10 cells …; test: cell-based or functional assay
Target sequence in this assay (Q07011 24-255): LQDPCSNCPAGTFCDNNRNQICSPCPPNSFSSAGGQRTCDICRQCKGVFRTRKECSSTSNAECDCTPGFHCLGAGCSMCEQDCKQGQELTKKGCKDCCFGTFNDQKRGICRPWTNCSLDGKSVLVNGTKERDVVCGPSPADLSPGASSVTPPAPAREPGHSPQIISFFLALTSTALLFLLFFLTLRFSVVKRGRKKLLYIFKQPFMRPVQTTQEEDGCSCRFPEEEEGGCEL

[6] = biological target: T5, human OX40 expressed on DO11.10 cells …; test: cell-based or functional assay

Row | Binder | binding result [1] | binding result [2] | Kd (hOX40-mFc) | Kd (cOX40-mFc) | EC50 [3] | EC50 [1] | EC50 [4] | EC50 [2] | Kd (cCD137-mFc-Avi) | Kd (hCD137-mFc-Avi) | EC50 of mIL-2 release, DO11.10-hCD137 assay, crosslinked [5] | Emax of mIL-2 release, DO11.10-hCD137 assay, crosslinked [5] | SEA assay (PBMC), hIL-2 max response, crosslinked [6] | SEA assay (PBMC), hIL-2 max response, no crosslinker [6] | SEA assay (PBMC), hIL-2 release EC50, crosslinked [6] | SEA assay (PBMC), hIL-2 release EC50, no crosslinker [6]
1 | B1 | no binding | no binding |  |  |  |  |  |  |  |  |  |  |  |  |  | 
2 | B2 |  |  | 0.385 nM | 1.63 nM | 0.201 nM | 0.111 nM | 0.355 nM | 0.258 nM | 6.42 nM | 3.85 nM | 13.4 nM | 18100 pg/mL | 30700 pg/mL | 29200 pg/mL | 0.5 nM | 0.51 nM
3 | B3 |  |  | 0.285 nM | 1.11 nM | 0.175 nM | 0.0682 nM | 0.394 nM | 0.12 nM | 0.318 nM | 0.342 nM | 6.1 nM | 17000 pg/mL | 33900 pg/mL | 34900 pg/mL | 0.38 nM | 0.29 nM
4 | B4 |  |  | 0.37 nM | 1.02 nM | 0.152 nM | 0.107 nM | 0.368 nM | 0.29 nM | 7.24 nM | 0.255 nM | 9.5 nM | 17200 pg/mL | 23700 pg/mL | 24900 pg/mL | 2.33 nM | 1.36 nM
